For the data set, the system named is molecular beacon probe. Briefly: DNA polymerase molecular beacon activity assay. Conditions: affinity purified enzyme expressed in A. wodanis 03/09/160; increasing enzyme. It is filed as biochemical. The source says: Activity assay for AsPoIII is based on a molecular beacon probe (5″-GGCCCGT^Dabcyl[…]^FAMACGGGCCGTCAAGTT CATG […]-3′ (SEQ ID NO:46)) (modified from Summerer, 2008). The molecular beacon probe consists of a 23mer loop that is connected by a GC-rich 8mer stem region (the 8-mer stem region consists of two 8 nucleotide sequences-sequences are indicated in italics) and a 43mer extension. The fluorophores Dabcyl and FAM are attached to the indicated “T” nucleotides. Due to the loop formation the fluorophores Dabcyl and FAM are in close proximity and thus quenched. Upon extension by the DNA polymerase I of the primer (5″-GTGGTGCGAAATTTCTGAC-3′ (SEQ ID NO:47)) that is annealed to the molecular beacon template the stem is opened and the increase in distance of the two fluorophores is measured by the restoration of FAM fluorescence (excitation 485 nm, emission 518 nm). Assay was monitored in 50 μL reactions containing 0.2 μM substrate (molecular beacon) mixed with 0.2 mM dNTP in 1× reaction buffer (250 mM Tris-HCl, pH 8.5, 250 mM, KCl, 25 mM MgCl2) and 1×DB (1 mg/ml BSA, 5 mM DTT, 10% glycerol). The mixture was first incubated at 25° C. for 5 min, and the reaction was started by adding the purified enzyme. Increase in fluorescence was measured (excitation 485 nm, emission 518 nm) for 15 min with 10 sec intervals (total of 91 reads). […]

Results on one molecule are retold here after US11560582B2, “Fusion moieties and microbial hosts for protein production” (priority 2018, dated 2023).

B1: AsPoIII: DNA polymerase II from Aliivibrio salmonicida (SEQ ID NO: 38), His-tagged, expressed in A. wodanis (protein, listed as Aliivibrio salmonicida)
chain: LNSPHCGFLLTRQNKDIRDHSLVDLWVKCDDHIAHLLIENELAVIFFLKERQAEYESILTNAHIHYSIKSTSLHTFQHQPVFGLYFSSTQQKRVATALFEDHQLPTFEGDIRLADRYLMERFICGGMAFVGTPRQRKGYVEYRDVKIKSAEMTPEFSVVSLDVECSEKGILYSVALHCERDTRIIMVGPEETSDLPIEWVENEKALLLALESWFQTFDPDIIIGWNVINFDFNLLIKRAKWHNLAFRLGRGNSSLYFRESNKNRQQGFLSFPGRVVLDGIDALKTATYHFSSWSLESVSQELLNEGKSIHDPSDRMGEINRMYREDKCALAKYNLQDCVLVTRIFELTHLLEFVIERTKLTGIELDRVGGSVAAFTNLYLPRLHRAGYIAPNLESENWIASPGGYVMSSKPGLYESVLVLDFKSLYPSIIKTFRIDPLGLVEGLKLESGIDDGQAIEGFRGGRFHRTKHFLPNLIETLWSARDVAKKNNEKAFSQAIKIIMNSFYGVLGSSGCRFFDHRLASSITMRGHEIMKTTRELIESQGYEVIYGDTDSTFVTLGESMPSDEADKIGKQLVDHINQWWTAHLESEYAIDSALEIEYETHYRIFLMPTIRGSEMGSKKRYAGLIRKGDKEEIIFKGLETVRTDWTPLSQEFQKVLFDKVFHQQAVEEYVREYVDKTKSGEFDNKLIYRKRLRRQLDEYQKNVPPHVKAARIADTQNQKLGKPLMYQQGGWIEYIITTAGPEPIEYRQNPIDYDHYVEKQLKPIAEGILPFVNLSFTELSASQLGLF
modifications: 6xHis tag
Regarding B1, the “DNA polymerase activity (FAM fluorescence, RFU)” value is reported as “dose-dependent”.
